Legend:
[1] = molecular target: G146V mutant Dictyostelium actin (Dictyostelium); assay: pyrene fluorescence depolymerization assay; 2 μM Mg-actin (20% pyrene-labeled) polymerized overnight at 22°C with 100 mM KCl, 2 mM MgCl2, 0.5 mM ATP; depolymerization induced with 30 μM latrunculin A; double-exponential fit; filament to monomers
[2] = molecular target: G146V mutant Dictyostelium actin (Dictyostelium); assay: pyrene fluorescence depolymerization assay; 2 μM Mg-actin (20% pyrene-labeled) polymerized for 12 min at 22°C with 100 mM KCl, 2 mM MgCl2, 0.5 mM ATP; depolymerization induced with 30 μM latrunculin A; double-exponential fit; filament to monomers
[3] = molecular target: G146V mutant Dictyostelium actin (Dictyostelium); assay: co-sedimentation; critical concentration by pelleting assay: 0.5-3.0 μM actin polymerized in F-buffer (10 mM HEPES pH 7.4, 2 mM MgCl2, 100 mM KCl, 0.5 mM ATP, 0.5 mM DTT) for 3 hr at 21°C, ultracentrifuged, protein in pellets determined; monomer to filament

τf (depolymerization, fast-depolymerization population) [1]: 27.4 min
τs (depolymerization, slow-depolymerization population) [1]: 98 min
τf (depolymerization, fast-depolymerization population) [2]: 20.1 min
τs (depolymerization, slow-depolymerization population) [2]: 169 min
critical concentration [3]: 0.51 µM
Substance: G146V mutant Dictyostelium actin (natural protein)

— PMC4422724
